Test results as given in the supplement of paper PMC10567573.

B1: PBXIP1 (parent)
chain: EKQKQPRWREGTKDSHDPLPSWAE

Variants of: B1
Test: protein stability index of a GFP-peptide fusion (GPS, HEK-293T) (PSI 1-6); higher = more stable
Conditions: c terminus: a fixed tail appended
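Note: lentivirally expressed fusions sorted by FACS into six bins by GFP to DsRed ratio, PSI derived from sequencing read proportions per bin multiplied by bin number.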

| Variant | protein stability index |
| --- | --- |
| EKQKQPRWRKGTKDSHDPLPSWAE [E10K] | 2.34 |
| EKQKQPRWRLGTKDSHDPLPSWAE [E10L] | 1.96 |
| EKQKQPRWRQGTKDSHDPLPSWAE [E10Q] | 1.83 |
| EKQKQPRWRRGTKDSHDPLPSWAE [E10R] | 2.2 |
| EKQKQPRWRSGTKDSHDPLPSWAE [E10S] | 1.18 |
| EKQKQPRWRTGTKDSHDPLPSWAE [E10T] | 3.55 |
| EKQKQPRWRWGTKDSHDPLPSWAE [E10W] | 1.53 |
| EKQKQPRWREDTKDSHDPLPSWAE [G11D] | 2.02 |
| EKQKQPRWREETKDSHDPLPSWAE [G11E] | 1.15 |
| EKQKQPRWREFTKDSHDPLPSWAE [G11F] | 2.88 |
| EKQKQPRWREHTKDSHDPLPSWAE [G11H] | 3.13 |
| EKQKQPRWREITKDSHDPLPSWAE [G11I] | 1.69 |
| EKQKQPRWRELTKDSHDPLPSWAE [G11L] | 2.31 |
| EKQKQPRWREMTKDSHDPLPSWAE [G11M] | 2.78 |
| EKQKQPRWREPTKDSHDPLPSWAE [G11P] | 1.77 |
| EKQKQPRWREQTKDSHDPLPSWAE [G11Q] | 1.68 |
| EKQKQPRWRERTKDSHDPLPSWAE [G11R] | 1.46 |
| EKQKQPRWRESTKDSHDPLPSWAE [G11S] | 2.61 |
| EKQKQPRWREYTKDSHDPLPSWAE [G11Y] | 1.98 |
| EKQKQPRWREGAKDSHDPLPSWAE [T12A] | 2 |
| EKQKQPRWREGEKDSHDPLPSWAE [T12E] | 1.61 |
| EKQKQPRWREGFKDSHDPLPSWAE [T12F] | 1.33 |
| EKQKQPRWREGHKDSHDPLPSWAE [T12H] | 2.89 |
| EKQKQPRWREGIKDSHDPLPSWAE [T12I] | 2.34 |

| Variant | protein stability index |
| --- | --- |
| EKQKQPRWREGKKDSHDPLPSWAE [T12K] | 2.38 |
| EKQKQPRWREGLKDSHDPLPSWAE [T12L] | 2.31 |
| EKQKQPRWREGMKDSHDPLPSWAE [T12M] | 2.69 |
| EKQKQPRWREGRKDSHDPLPSWAE [T12R] | 2.71 |
| EKQKQPRWREGYKDSHDPLPSWAE [T12Y] | 1.01 |
| EKQKQPRWREGTADSHDPLPSWAE [K13A] | 2.15 |
| EKQKQPRWREGTCDSHDPLPSWAE [K13C] | 1.28 |
| EKQKQPRWREGTDDSHDPLPSWAE [K13D] | 2.18 |
| EKQKQPRWREGTHDSHDPLPSWAE [K13H] | 2.96 |
| EKQKQPRWREGTNDSHDPLPSWAE [K13N] | 2.35 |
| EKQKQPRWREGTQDSHDPLPSWAE [K13Q] | 1.29 |
| EKQKQPRWREGTVDSHDPLPSWAE [K13V] | 1.52 |
| EKQKQPRWREGTKCSHDPLPSWAE [D14C] | 1.1 |
| EKQKQPRWREGTKFSHDPLPSWAE [D14F] | 1.46 |
| EKQKQPRWREGTKKSHDPLPSWAE [D14K] | 2.66 |
| EKQKQPRWREGTKMSHDPLPSWAE [D14M] | 1.96 |
| EKQKQPRWREGTKPSHDPLPSWAE [D14P] | 1.83 |
| EKQKQPRWREGTKQSHDPLPSWAE [D14Q] | 1.87 |
| EKQKQPRWREGTKSSHDPLPSWAE [D14S] | 3.28 |
| EKQKQPRWREGTKTSHDPLPSWAE [D14T] | 1.8 |
| EKQKQPRWREGTKYSHDPLPSWAE [D14Y] | 2.35 |
| EKQKQPRWREGTKDAHDPLPSWAE [S15A] | 2.65 |
| EKQKQPRWREGTKDCHDPLPSWAE [S15C] | 2.95 |
| EKQKQPRWREGTKDDHDPLPSWAE [S15D] | 1.84 |

| Variant | protein stability index |
| --- | --- |
| EKQKQPRWREGTKDEHDPLPSWAE [S15E] | 1.37 |
| EKQKQPRWREGTKDGHDPLPSWAE [S15G] | 1.68 |
| EKQKQPRWREGTKDKHDPLPSWAE [S15K] | 2.02 |
| EKQKQPRWREGTKDLHDPLPSWAE [S15L] | 1.27 |
| EKQKQPRWREGTKDMHDPLPSWAE [S15M] | 3.08 |
| EKQKQPRWREGTKDNHDPLPSWAE [S15N] | 1.63 |
| EKQKQPRWREGTKDPHDPLPSWAE [S15P] | 1.26 |
| EKQKQPRWREGTKDQHDPLPSWAE [S15Q] | 1.8 |
| EKQKQPRWREGTKDTHDPLPSWAE [S15T] | 1.96 |
| EKQKQPRWREGTKDWHDPLPSWAE [S15W] | 1.54 |
| EKQKQPRWREGTKDSCDPLPSWAE [H16C] | 3.68 |
| EKQKQPRWREGTKDSDDPLPSWAE [H16D] | 2.05 |
| EKQKQPRWREGTKDSEDPLPSWAE [H16E] | 3.06 |
| EKQKQPRWREGTKDSIDPLPSWAE [H16I] | 1.98 |
| EKQKQPRWREGTKDSKDPLPSWAE [H16K] | 1.93 |
| EKQKQPRWREGTKDSMDPLPSWAE [H16M] | 1.07 |
| EKQKQPRWREGTKDSNDPLPSWAE [H16N] | 2.85 |
| EKQKQPRWREGTKDSPDPLPSWAE [H16P] | 2.26 |
| EKQKQPRWREGTKDSSDPLPSWAE [H16S] | 2.56 |
| EKQKQPRWREGTKDSVDPLPSWAE [H16V] | 1.69 |
| EKQKQPRWREGTKDSWDPLPSWAE [H16W] | 1.37 |
| EKQKQPRWREGTKDSYDPLPSWAE [H16Y] | 1.39 |
| EKQKQPRWREGTKDSHAPLPSWAE [D17A] | 1.39 |
| EKQKQPRWREGTKDSHCPLPSWAE [D17C] | 3.64 |

| Variant | protein stability index |
| --- | --- |
| EKQKQPRWREGTKDSHEPLPSWAE [D17E] | 1.39 |
| EKQKQPRWREGTKDSHIPLPSWAE [D17I] | 1.48 |
| EKQKQPRWREGTKDSHKPLPSWAE [D17K] | 1.24 |
| EKQKQPRWREGTKDSHLPLPSWAE [D17L] | 1.58 |
| EKQKQPRWREGTKDSHNPLPSWAE [D17N] | 1.97 |
| EKQKQPRWREGTKDSHPPLPSWAE [D17P] | 1.94 |
| EKQKQPRWREGTKDSHRPLPSWAE [D17R] | 2.27 |
| EKQKQPRWREGTKDSHSPLPSWAE [D17S] | 1.86 |
| EKQKQPRWREGTKDSHTPLPSWAE [D17T] | 1.43 |
| EKQKQPRWREGTKDSHVPLPSWAE [D17V] | 3.08 |
| EKQKQPRWREGTKDSHYPLPSWAE [D17Y] | 1.5 |
| EKQKQPRWREGTKDSHDDLPSWAE [P18D] | 1.75 |
| EKQKQPRWREGTKDSHDHLPSWAE [P18H] | 1.75 |
| EKQKQPRWREGTKDSHDMLPSWAE [P18M] | 1.88 |
| EKQKQPRWREGTKDSHDNLPSWAE [P18N] | 1.92 |
| EKQKQPRWREGTKDSHDQLPSWAE [P18Q] | 1.96 |
| EKQKQPRWREGTKDSHDSLPSWAE [P18S] | 1.29 |
| EKQKQPRWREGTKDSHDTLPSWAE [P18T] | 1.87 |
| EKQKQPRWREGTKDSHDVLPSWAE [P18V] | 3.04 |
| EKQKQPRWREGTKDSHDYLPSWAE [P18Y] | 1.95 |
| EKQKQPRWREGTKDSHDPCPSWAE [L19C] | 1.51 |
| EKQKQPRWREGTKDSHDPDPSWAE [L19D] | 1.99 |
